According to the DeepSol protein solubility set:

Experiment: soluble on expression in E. coli; label from the status in PepcDB or PDB records

| Sequence | soluble on expression in E. coli |
| --- | --- |
| MGSDKIHHHHHHAERKNALKVDNGHYYKWKEGNIFYTKTGTGKPILLIHDTDSGASGEEWAKVAKKLAKNNTIYTIDLLGCGRSDKPSIQYTSYMYVQIITAFVDDVIGKPVNVAATNLSTAPVIMANALSKDLFNKIILINPVSLQQLKCIPDKSTKFKQNIINLPIVGTFIYNKLMSPIKVDLLFRNKFISRSQLISDNMKDAYYESAHKGQSRGKYLYSSILSNYINTNIAPALKNLDKDVSIIASTGIKNNMDVINNYHKLNSKCDIIHIANAKLYPQLELPEKTASIIKKIVTN | not soluble |
| MSLLKLFDAHFHIIDYRFPLIANQSYLPPEFTVEDYLQRAKPLNICGGAVVSGSFQAFDQTYLLTALSVLGPNFVGVTQLPATVSDEEIIQLNQHGIRAVRFNLKRGGSESIHQLKYFAHRIYEMVRWHVEIYVDSKELGDLTNLLLELPAVSIDHLGLSQSGFSELLHLVEHGIKIKASGFGRVDFDVKKALQTIAQISPDALLFGTDLPSTRAPLPFLDSDIQLIQDLFDEELTEKILYRNACNFYSKNEGHHHHHH | soluble |
| GMKGISHRIAIPLILEVGNNKIYNIGQIIKKGNFKRVSLYFGEGIYELFGETIEKSIKSSNIEIEAVETVKNIDFDEIGTNAFKIPAEVDALIGIGGGKAIDAVKYMAFLRKLPFISVPTSTSNDGFSSPVASLLINGKRTSVPAKTPDGIVVDIDVIKGSPEKFIYSGIGDLVSNITALYDWKFEEENHKSIIDDFAVMISKKSVNSFVRTDFKSIKDEVFLKELVDSLTMNGIAMEIAGNSSPASGAEHLISHALDKFLPNPQLHGIQVGVATYIMSKVHKHREERIKKILSDTGFFNYVKGLNMKKSDFKRAISEAHLIKPARYTYLHVEKNCETAKEIVDTDEILRNILV | soluble |
| MAHHHHHHMSASAPRVGLLGAANIAWRAWTGVRANGMSVTRVGCRDVDRGRNFVKRVCDALKIDEAAVPAVCSYEELVSAADVDVVYIAIPVKARDHWVRECIKYKKHVVGEKPPATDAEMLRSWIEALDQQNLLYMDGTMLSHGKRVKEICAAVKQMGGPVKHIFANVTLGGDEAFLANNIRTNPELEPHGALGDLGWYCIRYALHLMDFQMPTEVTGRILKQNDKGAIISFIGDMTFEVGGEVALVSFFVSFEAAFEQTLHITTTEGMLQLDDMCLPMTSRPETVYYEVHNSSYDNVCESHNLHTEVKHTVNGDAPNSQCTELWGDVARILYADGEGDARRLKAKEESSRYWATVSWKTQAVMDKMLESALIGRNAAPTA | not soluble |
| MSLAVVKGARVQVPFGQQIKVGIVVDLPSTTDIPQSKLKPIHAVLDHQAIFDPEIWQLLHWAASYYHAAIGEVLASALPVKLRNGDAAEYVENDYFRVTELGQQRLVSPENKRSKKQYDLLSRLAEIAGFFEKPAGVSPSVWKALLEKGYLAKVVPTCQRKSWQQSLANRPLVNSQSRLVLNQQQTLVVSRLNACQNFETFLLNGITGSGKTEVYLQVIEQILKQDKQVLVLVPEIGLTPQMVNRFKTRFNVEIDVLHSNINETMRLKVWLKAKNGESAIVIGTRSALFTQFQRLGLIIIDEEHDHSFKQQEGWRYHARDVAIFRAKCLNIPIILGSATPSLESVYNVKNGKFTQLLLSTRAGNAEIAQQQLIDLKTQRITAGLSDRLLMLMQTHLQKGNQVMLFLNRRGFAPVLLCHECGWICECDACEKPYTYHQKQRVLRCHHCASQRVIPRQCGYCGSTNLITTGIGTEQLEQLLSEYFPTYQISRIDRDSTGRKGALEHHLNAIQTGKSQILIGTQMLAKGHHFPNVTLVALVNVDSALFSTDFRAEERLAQLYLQVAGRAGRAEKTGEVVLQTHYPDHPLLKCLLKDGYNAFAEEALKMRQVMALPPFTAQVLFRATGKQSDKVEHLLQNLTAYFQHKSVELGIEGIQISPPFSAIVAKKAGYYRWLLLIQHQSRSAIQQLLNVFDQEKSALNLPANIRLSLDVDPYDMSEGHHHHHH | soluble |
| MKKWLALFVFGMVSLFATSAHAESYETTKTLKVYESRSFNSPVKKELQPGERVYVTNQHPSGWWKISGGFIAPEGAKVEINRTFEAFDWINMDSAKYVFSPQTVIARDGTLRGEILIDTYLGQKWTSVNGMPQIMKQNFAAYSSPEAKNPDAWFAPQTVNILQTKENGWSLINTYLGPKWIVRYPHVEHINRDFYAYNEPKYMHHGVKFSAQSVRVLQQGENGWKKIKAEVGEKWIAPQGSYYHVPNVFTAFDQPFGRAIGTFAPQTVFVVEESTTSFGWLKIRTYLGDSWIRTNRN | not soluble |
| SMKAIVVINLVKINKKIIPDKIYVYRLFNDPEEELQKEGYSIYRLAYENVGIVIDPENLIIATTKELEYEGEFIPEGEISFSELRNDYQSKLVLRLLKENGIGEYELSKLLRKFRKPKTFGDYKVIPSVEMSVIKHDEDFYLVIHIIHQIQSMKTLWELVNKDPKELEEFLMTHKENLMLKDIASPLKTVYKPCFEEYTKKPKLDHNQEIVKYWYNYHIERYWNTPEAKLEFYRKFGQVDLKQPAILAKFASKIKKNKNYKIYLLPQLVVPTYNAEQLESDVAKEILEYTKLMPEERKELLENILAEVDSDIIDKSLSEIEVEKIAQELENKIRVRDDKGNSVPISQLNVQKSQLLLWTNYSRKYPVILPYEVPEKFRKIREIPMFIILDSGLLADIQNFATNEFRELVKSMYYSLAKKYNSLAKKARSTNEIGLPFLDFRGKEKVITEDLNSDKGIIEVVEQVSSFMKGKELGLAFIAARNKLSSEKFEEIKRRLFNLNVISQVVNEDTLKNKRDKYDRNRLDLFVRHNLLFQVLSKLGVKYYVLDYRFNYDYIIGIDVAPMKRSEGYIGGSAVMFDSQGYIRKIVPIKIGEQRGESVDMNEFFKEMVDKFKEFNIKLDNKKILLLRDGRITNNEEEGLKYISEMFDIEVVTMDVIKNHPVRAFANMKMYFNLGGAIYLIPHKLKQAKGTPIPIKLAKKRIIKNGKVEKQSITRQDVLDIFILTRLNYGSISADMRLPAPVHYAHKFANAIRNEWKIKEEFLAEGFLYFV | soluble |
| MGSDKIHHHHHHMPKSVRAENISRILKRIMKSPVSRVELAEELGLTKTTVGEIAKIFLEKGIVVEEKDSPKGVGRPTKSLKISPNCAYVLGIEVTRDEIAACLIDASMNILAHEAHPLPSQSDREETLNVMYRIIDRAKDMMEKLGSKLSALTVAAPGPIDTERGIIIDPRNFPLSQIPLANLLKEKYGIEVWVENDADMGAVGEKWYTKRDDSFAWILTGKGIGAGIIIDGELYRGENGYAGEIGYTRVFNGNEYVFLEDVCNENVVLKHVLSMGFSSLAEARDSGDVRVKEYFDDIARYFSIGLLNLIHLFGISKIVIGGFFKELGENFLKKIKIEVETHLLYKHSVDMSFSKVQEPVIAFGAAVHALENYLERVTTS | soluble |
| MGSDKIHHHHHHMKDDVSAPSRYRPSIFAVPFQRHGDGTAVELLSPSEQDALIAISRLVTVRRHTVLYPEGGDARFAYNIVSGVAETYQLLPNGDKRITAFLFPRDLMGLSENGAYVATAQSLTPLVAYRIPVEALAEILERDPRLDIGLLCKLCHELRRSQHHTITVSKNEAPARLASFLVWIQHAYPEEGRAEGEVMLPMSRHDIADYLGLSVESVSRGLHVLEAQDAVRRKGPRLVTVLDPAKLRRLAGQD | not soluble |
| MPLTPLHQVELRLMRTVIAICEAENIDYFLIGGSLLGAIRHHGFIPWDDDIDIGMRRHDYQRFIAVANHHLDPNKFFLQTGASDPDYALSYMKLLDVNTYIEERNNVNNAFKGVFVDIFPFDKIPDDEALRRSQMLHYKLADAAILLKLNYRFVKTPLRNLITKHTPQQLAEVNRYKLEREEYMRLYEQSDSRTYKNLASQYDYEKEIMTYQELTELTTVPFEDIQVKIPSAYDTILTRMYGDYMQLPPADKRVEKHLNKLIIDNHEILLEHHHHHH | not soluble |
| MIDKSAFIHPTAIVEDGAVIGANAHIGPFCIVGPQVEIGEGTVLKSHVVVNGQTKIGRDNEIYQFASIGEVNQDLKYAGEPTRVEIGDRNRIRESVTIHRGTVQGGGLTKVGSDNLLMINAHVAHDCTVGNRCILANNATLAGHVSVDDFAIIGGMTAVHQFCIIGAHVMVGGCSGVAQDVPPYVIAQGNHATPFGVNIEGLKRRGFSREGLVAIRNAYKLLYRSGKTLDEAKLEIAELAEKHPEVKAFTEFFERSTRGPIR | not soluble |
